Results: a protein production outcome set (Wang et al. 2014)

Assay: label from the status in PepcDB records
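Note: failed if final PepcDB status was selected cloned or expressed and not failed if soluble or beyond.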

For “MCFSFIMPPAMADILDIWAVDSQIASDGSIPVDFLLPTGIYIQLEVPREATISYIKQMLWKQVHNYPMFNLLMDIDSYMFACVNQTAVYEELEDETRRLCDVRPFLPVLKLVTRSCDPGEKLDSKIGVLIGKGLHEFDSLKDPEVNEFRRKMRKFSEEKILSLVGLSWMDWLKQTYPPEHEPSIPENLEDKLYGGKLIVAVHFENCQDVFSFQVSPNMNPIKVNELAIQKRLTIHGKEDEVSPYDYVLQVSGRVEYVFGDHPLIQFQYIRNCVMNRALPHFILVECCKIKKMYEQEMIAIEAAINRNSSNLPLPLPPKKTRIISHVWENNNPFQIVLVKGNKLNTEETVKVHVRAGLFHGTELLCKTIVSSEVSGKNDHIWNEPLEFDINICDLPRMARLCFAVYAVLDKVKTKKSTKTINPSKYQTIRKAGKVHYPVAWVNTMVFDFKGQLRTGDIILHSWSSFPDELEEMLNPMGTVQTNPYTENATALHVKFPENKKQPYYYPPFDKIIEKAAEIASSDSANVSSRGGKKFLPVLKEILDRDPLSQLCENEMDLIWTLRQDCREIFPQSLPKLLLSIKWNKLEDVAQLQALLQIWPKLPPREALELLDFNYPDQYVREYAVGCLRQMSDEELSQYLLQLVQVLKYEPFLDCALSRFLLERALGNRRIGQFLFWHLRSEVHIPAVSVQFGVILEAYCRGSVGHMKVLSKQVEALNKLKTLNSLIKLNAVKLNRAKGKEAMHTCLKQSAYREALSDLQSPLNPCVILSELYVEKCKYMDSKMKPLWLVYNNKVFGEDSVGVIFKNGDDLRQDMLTLQMLRLMDLLWKEAGLDLRMLPYGCLATGDRSGLIEVVSTSETIADIQLNSSNVAAAAAFNKDALLNWLKEYNSGDDLDRAIEEFTLSCAGYCVASYVLGIGDRHSDNIMVKKTGQLFHIDFGHILGNFKSKFGIKRERVPFILTYDFIHVIQQGKTGNTEKFGRFRQCCEDAYLILRRHGNLFITLFALMLTAGLPELTSVKDIQYLKDSLALGKSEEEALKQFKQKFDEALRESWTTKVNWMAHTVRKDYRS”, the protein production was “failed”.

In the case of “MSDRFVIWAPSMHNEPAAKCGYCHGNKGGNMDQLFALDSWAHRYMNKMDVVKIENCTIGSFVEHMDVATYDRMCNMGFRRSGKFLYKVDPLRNCCRLYTIRTAPQELNMTKELKKCISRFATRITSEDYCPAAVASSDFVGKIVNAEMNSKTFYTRFEPALYSEEKYHLFVKYQEKVHQDYNNSPKSFKRFLCDTPFGPEAVLGTQESWEQLNNWQRMKPGEKLKHMGPVHECYYYEGKLIAITVSDILPSGISSVYFIWDPDYSKWSLGKLSALRDLAIIQRTNLQYYYLGYYIEDCPKMNYKANYGAEVLDVCHSKYIPLKPIQDMISRGKLFVIGEEETKVTKELYLVDSETGRGEGFPTDNVVKYKNIAEEIYGVGGCAFKSANESALELKELYGIPYEEEDLDTIYHLKEHNGHAPNGIPNVVPGLLPLWELLDIMQSGKITDLEGRLFLFEIETEGIRPLINFYSEPPNVKKRICDVIRLFGFETCMKAVILYSEQM”, the protein production was “failed”.

In the case of “MVNQNLTATEIGFTHEDFAALLDKYDYHFSPGDVVPGTVFSIEPRGALIDIGAKTAAYIPIQEMSINRVDAPEEVLQSNETREFFILTDENEDGQLTLSIRRIEYMRAWERVRQLQAEDATVRSGVFATNRGGALVRIEGLRGFIPGSHISTRKPKEELVGEELPLKFLEVDEERNRLVLSHRRALVERKMNRLEVGEVVIGTVRGIKPYGAFIDIGGVSGLLHISEISHEHIDTPHSVFNVNDEVKVMIIDLDAERGRISLSTKQLEPEPGDMIKNRDLVYDKAEEMAAKYREQLLAKQQGITLPAEGAEDLIEEEIPPATEDAVAEEEIVAVEEIPAAIEE”, the protein production was “failed”.

In the case of “MTIQQWLFSFKGRIGRRDFWIWIGLWFAGMLALFSLAGKNLLDIQTAAFCLVCLLWPTAAVMVKRLHDRGRSGAWALLMILAWMLLAGNWVMLPGMWQWVVGRFIPTLILVMMLIDLGAFVGVQGENKFGKATQDVKFKAEP”, the protein production was “failed”.

For “MRETSNPVFRSLPKQRGGYAQFGTGTAQQGFPADPYLAPYREAKATRPLTIDDVVTKTGLTLAMLAGTAVVSYFLVASNVALAMPLTLVGALGGLALVLVATFGRKQDNPAIVLSYAALEGLFLGAISFVLANFTVASANAGVLIGEAILGTMGVFFGMLVVYKTGAIRVTPKFTRMVVAALFGVLVLMLGNLVLAMFNVGGGEGLGLRSPGPLGIIFSLVCIGIAAFSFLIDFDAADQMIRAGAPEKAAWGVALGLTVTLVWLYIEILRLLSYLQNE”, the protein production was “failed”.

In the case of “MTSRLRALGGRINNIRTSELPKEKTRSEVTCSIRFLDGLVQTFKVNKQDLGQSLLDMAYGHLGVTEKEYFGLQHGDDPVDSPRWLEASKPLRKQLKGGLPCILHFRVRYFIPDPNTLQQEQTRHLYFLQLKMDVCEGRLTCPLNSAVVLASYAVQSHIGDFNSSIHHPGYLADSQFIPDQNDDFLSKVESLHEQHSGLKQSEAESCYINIARTLDFYGVELHGGRDLHNLDLMIGIASAGIAVYRKYICTSFYPWVNILKISFKRKKFFIHQRQKQAESREHIVAFNMLNYRSCKNLWKSCVEHHSFFQAKKLLPQEKNVLSQYWTLGSRNPKKSVNNQYCKKVIGGMVWNPVMRRSLSVERLETKSLPSRSPPITPNWRSPRLRHEIRKPRHSSADNLANEMTYITETEDVFYTYKGSLSPKDSDSEVSQNHSPHRGSLSENNPAQSCLTQKSSSSVSPCSNAPGSFSPDGVDQQFLEDYHKVTKGGSIEEASQYYCDKNDDGDGYLVLIRITPDKEGRFGFNLKGGVDQKMPLVVSRINPESPADTCMPKLNEGDQIVLINGRDISEHTHDQVVMFIKASRESHSRELALVIRRKAVRSLAEIRSEDELSQLFPEAMFPACPEGGDSLEGSMELLKKGLESGTVLIQFEQLYRKKPGLAVTFAKLPQNLDKNRYKDVLPYDTTRVLLQGNEDYINASYVNMEIPAANLVNKYIATQGPLPHTCAQFWQVVWDQKLSLVVMLTTLTERGRTKCHQYWPDPPDIMDHGIFHIQCQAEDCTIAYVSREMLVTNTETGEEHTVTHLQYVAWPDHGVPDDSSDFLEFVKYVRSLRVGGEPALVHCSAGIGRTGVLVTMETAMCLIERNLPVYPLDIVRKMRDQRAMMVQTSSQYKFVCEAILRVYEEGLVQTLDPS”, the protein production was “failed”.

With “MSLFKRSVVSEITSHAGVVFSTLVVVWLSVLLVRLLGEAAGGSIGADVVLGLAAFSTITALPTILAVSLFIAVLTTVTRNYRESEMVVWFASGLSLADWLRPVARVAVPIAMLVAALTLVASPWAYRQIGEYRERFEQRSDLSKVTAGQFAESGRGDRVFFAEDPVRPGDELGAVFARSIDPEWLSVLTASNARSETLPNGDRFLVLGEGHRYDLKPGTPEIRLVNFDQYGVRLESKAGEDPMAEARAAAERSSKARSTMQLVQDNTDSSWSQIMWRVAMPLAALNLALLAIPLGAVNPRLGRSGDLLIAGLVGLLYMNMINLSRAWISSGKISFSIGVWAVHAVVALLAAYLLMRRLRVKAPRNAGRGA” the protein production was “failed”.

In the case of “SQPLLDRSIPDFTAFTTVDDWLSAIKMVQYRDSFLTAGFTSLQLVTQMTSEDLLRIGITLAGHQKKILNSIHSMRVQISQSPTAMA”, the protein production was “not failed”.

With “MDGEIDADELRSKLDEETVRVVDIRSPGAFERGHIPESENVPFPSLVDEVERFEGDDEVVTVCPKGKSSVQAARLIASYEGFDGDVVSFAPGLNGWDGPLERAEDEETPADTAAADRDSDEGPAAPF” the protein production was “failed”.

For “SAQGLIEVERKFAPGPDTEERLQELGATLEHRVTFRDTYYDTSELSLMLSDHWLRQREGSGWELKCPGVTGVSGPHNEYVEVTSEAAIVAQLFELLGSGEQKPAGVAAVLGSLKLQEVASFITTRSSWKLALSGAHGQEPQLTIDLDSADFGYAVGEVEAMVHEKAEVPAALEKIITVSSMLGVPAQEEAPAKLMVYLQRFRPLDYQRLLEAASSGEATGDSAS”, the protein production was “not failed”.

With “MKNKSYYFLTIIRYAVYLLIGMCAVFYGELKNTEMYYFIVFFLMYIIVTQFRIYYLRNRKYVSVSMVVDLVLVCFMYSYVRNFSFLFLFISVLDSSIMLSKTQAYASGIICSVVIIIQNVKIPFSLKAGTNLINILFSILLIFTLVFIGDSFREEQKRKIEAQGLYDRLRESEEKLRGAYEKLERYSETVEELSILRERNRISREIHDSVGHTLSAVLMQLQALLYLIKSDKEESLKTVEEMTGFVRGGIENVRRTVRELKPTDFDRFEGVFAIEEMIRKYKKLTSADIRFILSKEKRSLSSDESFISYRVVQEALNNAIRHGKASLVEVSMQFNQDRLYIRIKDNGVGTDGIKKGFGMTGMEERVKKLGGNIEFYSERDKGFEVTVNLPKSSEEKNSIINY” the protein production was “failed”.

For “MLDTLVFGCVAFPLLAALAVYFVRGEAARRLIVPGAVAVTALSALGMAGSGPIMFAPKSFLGIGLDGLIAFLDFALLFYILYLGTKMRHLLIMGMTVLQIVGLIYLEFFLMDHGATVPGFYVDSLSLTMVLIISFVGGLICVYGLGYMKEHEEHLHLPQTKQPRFFFFVVLFLGAMNGLVLSNNLAWMYFFWEITTLCSFMLIGHDGTDEAKTNATRALWMNMVGGVAFVFALLFLQKGMGTLSVQDILARAVEPEMRTTAVLLPMAMLCLAGFTKSAQLPFQSWLCGAMVAPTPVSALLHSSTMVKAGVYLILRMAPGYAGTALSTGVALFGAFTFIVTSALAAGQSNGKKILAYSTIANLGLIVACAGINTAASVAAAMMLIIFHAISKGLLFLCVGAIEQKIGSRNIEDMRNLFERMPRTAVITVIGIVTMMLPPFGMLIAKWMAIESAAGAMSAMPLLVIMIALGSALTVLFWARWAGIMLGSSRPGFGPMQEEQDITIRLPLVSLVGGALVLSLLAPFVYTGLVEPAIAMYAKASAYGVSIGTIGNTMGAFAVYPLYLLLGAGFYYAWRAARNTPDSAASLPYMGGSQMTQDGVVGFNGPMNQFVPNAAGNYYLEKLFGEAQLTKPGNVVAIVLLILMIGGML”, the protein production was “failed”.

In the case of “MKTLKVYIPGIKFPSISVTGNYCALNCAHCGRHYLEGMKKITRLNLVDKCVEMEKEGYVGCLLSGGMDSRLKVPLDKFKDEIREIKEKTRLKINAHVGFIDEDDLEWLKYIDVVSLDFVGDNEVIKRVYKIDKTVNDYLKILDILTKERIKVAPHITIGLDFGRIHWEYEAIDLLSEYPIDVLVLNILIPTPGTEMENVKVSMEEALNVVRYAREEFKGELSIGCMRPFGRWREEFDKRAILIGVDRITNPPRKVIEWAKQFRKVEIHFECCVI”, the protein production was “failed”.

For “MSGMSAAARWTLIASVIAGVSYVASWGLTLPPGVETAWKGAGVGLLAIHAALRARSLDGWLLAAVMALGTGGDVLLETHGLTVGAISFLLGHVVASGLYLRHRNAVSLAPLALIPVVVAVSFLLPTDRAGAPGIALYSLFLAVMAAMALMSRFPFKTVGLGALMFVVSDLLIFGRLGPLPDNLATGLGVWGLYYFGQLLICLGVAGALAHPSTDLPGEGRGPDSA”, the protein production was “failed”.

In the case of “MHGVEFAPLERQHGSQVLALLRGTLLVPLPRLHQRLEEAYERDARLGLAQVALCRLAGNAEKVVGVLLARVATRRTCCAQVYIDAVAVDAVFQGQGIGSRLLLRVLTPCLPDGLEVREVFLHTPLQATELVAFYRSCGFESDDEVIDNYYPRRWMPQAQALVLRWRPPTAAQHQHEERKGPQDADVS”, the protein production was “not failed”.

For “MNPPEKLLTAENPALRQRAKAMRQEMSEAEAKLWQHLRAGRLNGYKFRRQQPMGNYIVDFMCVTPKLIVEADGGQHAEQAVYDHARTVYLNSLGFTVLRFWNHEILQQTNDVLAEILRVLQELEKQPAR”, the protein production was “not failed”.

For “MLRSLLVPLFSNAASSTDDHGITLPQYQVFINFRGDELRNSFVGFLVKAMRLEKINVFTDEVELRGTNLNYLFRRIEESRVAVAIFSERYTESCWCLDELVKMKEQMEQGKLVVVPVFYRLNATACKRFMGAFGDNLRNLEWEYRSEPERIQKWKEALSSVFSNIGLTSDIRRYNLINKNMDHTSEFLYIVLILNFFSEISDMTGLTTSYQFLLMMKSNLISYDIYIYPTKFCVNVFIGV”, the protein production was “failed”.

In the case of “GNLSFLATSDGASLAYRLDGAAEKPLLALSNSIGTTLHMWDAQLPALTRHFRVLRYDARGHGASSVPPGPYTLARLGEDVLELLDALEVRRAHFLGLSLGGIVGQWLALHAPQRIERLVLANTSAWLGPAAQWDERIAAVLQAEDMSETAAGFLGNWFPPALLERAEPVVERFRAMLMATNRHGLAGSFAAVRDTDLRAQLARIERPTLVIAGAYDTVTAASHGELIAASIAGARLVTLPAVHLSNVEFPQAFEGAVLSFLGA”, the protein production was “not failed”.
